Literature values in publication PMC8666702 (Hypertension (Dallas, Tex. : 1979), 2021).

Columns and labels:
[1] = tested on: insulin degrading enzyme (IDE)

atrial natriuretic peptide [ANP]
Degradation by insulin degrading enzyme (IDE) [1]: rapid degradation
Degradation by neprilysin (NEP) (neprilysin (NEP)): rapid degradation
